# Key:
# [1] = 1 TAME unit = 1 μmole TAME hydrolyzed/min at pH 8.2, 25° C.; cited from earlier work
# [2] = system: (GR)10; assay: Cleavage of (GR)10 by enzymes in solution (PBS with CaCl2 and MgCl2), LC/MS of GR repeats; type: biochemical; settings: in solution, activated with 2.5 mM DTT
# Procedure: • (GR)10 dipeptide (also (GR)8, (GR)6, (GR)4, (GR)2) were synthetized by solid-phase synthesis by CanPeptide; All peptides are uncapped and supplied lyophilized with TFA as counter ions. Purity was always above 95%. • Buffer: PBS buffer containing CaCl2 and MgCl2. • Stock solution of enzyme (e.g., 10 mg/mL) (prepared per manufacturer instructions) in PBS. Activators added as necessary. • Working solution of protein of the desired concentration (e.g., 100 μg/mL) prepared immediately before use by diluting the stock solution (e.g., 5 μL of 10 mg/mL stock solution) in PBS buffer (e.g., in 495 μL of PBS). Exemplary Procedure Using 50 μM Concentrations of (GR)10
# 25 μL of a 100 μM solution of (GR)10 was added to each well of a 96-well plate. 25 μL of a solution of enzyme (two times the desired final enzyme concentration) was added, and the plates were incubated at room temperature. At the specified time points (5 minutes, 10 minutes, 30 minutes, 60 minutes, and 180 minutes) 2.5 μL of a 10% TFA solution were added to stop the reaction. For the time 0 min well, the TFA was added to the well before addition of the enzyme. After last time point, all samples were further diluted with 150 μL of dilution solution. The quenched reaction mixtures were analyzed by LC/MS to determine the concentration of GR repeats of different lengths.
# The chromatography and mass spectrometry conditions utilized are shown in Table 2 and Table 3, respectively.
# [3] = system: (GR)10; assay: (GR)10 digestion with immobilized proteases (NHS-activated agarose resin) in PBS; type: biochemical; settings: immobilized
# Procedure: (§1) Protease solutions were prepared at 2 mg/mL in sterile PBS with calcium, magnesium and 200 μL ([…]) were applied to 100 μL of pre-washed NHS-activated agarose resin in 0.8 mL centrifuge columns. Reactions were left 1.5 hour at room temperature with end-to-end mixing, after which resins were washed with 12 resin volumes of PBS. Unreacted sites were blocked with 500 μL of 1M ethanolamine for 15 minutes at room temperature and resins were further washed with 24 resin volumes. Resins were stored at 4 degrees in 500 μL of PBS containing 0.05% sodium azide as preservative.
# 110 μL of 50 μM (GR)10 dipeptide repeats prepared in PBS were added to each immobilized protease and incubated 5 minutes at room temperature with end-to-end mixing. Columns were spun down 1 minute at 1,000 Xg to recover digested GR dipeptides. Columns were washed with 110 μL of PBS to increase (GR)10 recovery. This procedure was repeated with 60 minutes digestion time. 100 μL of each samples were transferred to a new tube and 5 μL of 10% TFA followed by 300 μL of Dilution Solution were added. The reaction mixtures were analyzed by LC/MS to determine the concentration of GR repeats of different lengths.
# [4] = system: (GR)10; assay: (GR)10 digestion with immobilized proteases in human cerebrospinal fluid (CSF); type: biochemical; settings: immobilized enzyme
# Procedure: as §1
# 200 μM of (GR)10 were diluted in human cerebrospinal fluid (CSF) and 400 μL were applied to each immobilized proteases. The reaction was incubated 5 minutes at room temperature with end-to-end mixing. Columns were spun down 1 minute at 1,000 Xg to recover digested GR dipeptides. Columns were washed with 12 resin volumes of PBS. The procedure was repeated with 60 minutes digestion time. 100 μL of each samples were transferred to a clean tube, flash-frozen and subsequently used for LC/MS quantification of GR repeats of different lengths. The remaining 300 μL of each samples were flash-frozen and used to assess neuron toxicity.
# (GR)10 was digested with exemplary immobilized enzymes as described above in the subsection titled “(GR)10 digestion with immobilized proteases in CSF” of Example 3. Clostripain experiments were conducted with and without DTT activation (no DTT during digestion). The results obtained after 5 and 60 minutes of reaction time are presented in Table 25 and shown in FIG. 5 (commercial and in-house immobilized trypsin), FIG. 6 (immobilized elastase, FIG. 7A (immobilized clostripain without DTT) and FIG. 7 (immobilized clostripain with 2.5 mM DTT).
# [5] = 2.5 mM DTT, resin wash from 5 min reaction
# [6] = 2.5 mM DTT, resin wash from 60 min reaction
# [7] = activated with 2.5 mM DTT, 5 min reaction
# [8] = activated with 2.5 mM DTT, 60 min reaction
molecule,measurement,setting,value
"TPCK-trypsin: TPCK-trypsin; ThermoFisher Cat #20233 (protein, UniProt P00760 24-246, looked up, TPCK-treated) Serine protease 1: IVGGYTCGANTVPYQVSLNSGYHFCGGSLINSQWVVSAAHCYKSGIQVRLGEDNINVVEGNEQFISASKSIVHPSYNSNTLNNDIMLIKLKSAASLNSRVASISLPTSCASAGTQCLISGWGNTKSSGTSYPDVLKCLKAPILSDSSCKSAYPGQITSNMFCAGYLEGGKDSCQGDSGGPVVCSGKLQGIVSWGSGCAQKNKPGVYTKVCNYVSWIKQTIASN",Activity,[1],308 TAME units/mg of protein
Clostripain + DTT (protein) NKNQKVTIMYYCDADNNLEGSLLNDIEEMKTGYKDSPNLNLIALVDRSPRYSSDEKVLGEDFSDTRLYKIEHNKANRLDGKNEFPEISTTSKYEANMGDPEVLKKFIDYCKSNYEADKYVLIMANHGGGAREKSNPRLNRAICWDDSNLDKNGEADCLYMGEISDHLTEKQSVDLLAFDACLMGTAEVAYQYRPGNGGFSADTLVASSPVVWGPGFKYDKIFDRIKAGGGTNNEDDLTLGGKEQNFDPATITNEQLGALFVEEQRDSTHANGRYDQHLSFYDLKKAESVKRAIDNLAVNLSNENKKSEIEKLRGSGIHTDLMHYFDEYSEGEWVEYPYFDVYDLCEKINKSENFSSKTKDLASNAMNKLNEMIVYSFGDPSNNFKEGKNGLSIFLPNGDKKYSTYYTSTKIPHWTMQSWYNSIDTVKYGLNPYGKLSWCKDGQDPEINKVGNWFELLDSWFDKTNDVTGGVNHYQW,(GR)1 (normalized to GR concentration),[2]; 5 min reaction,86.8 µM
same,(GR)2 (normalized to GR concentration),[2]; 5 min reaction,113.6 µM
same,(GR)3 (normalized to GR concentration),[2]; 5 min reaction,40.5 µM
same,(GR)4 (normalized to GR concentration),[2]; 5 min reaction,27.2 µM
same,(GR)5 (normalized to GR concentration),[2]; 5 min reaction,12.1 µM
same,(GR)6 (normalized to GR concentration),[2]; 5 min reaction,7.3 µM
same,(GR)8 (normalized to GR concentration),[2]; 5 min reaction,0.0 µM
same,(GR)10 (normalized to GR concentration),[2]; 5 min reaction,5.7 µM
same,(GR)1 (normalized to GR concentration),[2]; 60 min reaction,387.0 µM
same,(GR)2 (normalized to GR concentration),[2]; 60 min reaction,0.0 µM
same,(GR)3 (normalized to GR concentration),[2]; 60 min reaction,0.0 µM
same,(GR)4 (normalized to GR concentration),[2]; 60 min reaction,0.0 µM
same,(GR)5 (normalized to GR concentration),[2]; 60 min reaction,0.0 µM
same,(GR)6 (normalized to GR concentration),[2]; 60 min reaction,0.0 µM
same,(GR)8 (normalized to GR concentration),[2]; 60 min reaction,0.0 µM
same,(GR)10 (normalized to GR concentration),[2]; 60 min reaction,0.0 µM
same,(GR)1 (normalized to GR concentration),[3]; [5],99.1 µM
same,(GR)2 (normalized to GR concentration),[3]; [5],0.0 µM
same,(GR)3 (normalized to GR concentration),[3]; [5],0.0 µM
same,(GR)4 (normalized to GR concentration),[3]; [5],0.0 µM
same,(GR)5 (normalized to GR concentration),[3]; [5],0.0 µM
same,(GR)6 (normalized to GR concentration),[3]; [5],0.0 µM
same,(GR)8 (normalized to GR concentration),[3]; [5],0.0 µM
same,(GR)10 (normalized to GR concentration),[3]; [5],0.0 µM
same,(GR)1 (normalized to GR concentration),[3]; [6],125.6 µM
same,(GR)2 (normalized to GR concentration),[3]; [6],0.0 µM
same,(GR)3 (normalized to GR concentration),[3]; [6],0.0 µM
same,(GR)4 (normalized to GR concentration),[3]; [6],0.0 µM
same,(GR)5 (normalized to GR concentration),[3]; [6],0.0 µM
same,(GR)6 (normalized to GR concentration),[3]; [6],0.0 µM
same,(GR)8 (normalized to GR concentration),[3]; [6],0.0 µM
same,(GR)10 (normalized to GR concentration),[3]; [6],0.0 µM
same,(GR)1 (normalized to GR concentration),[3]; [7],299.3 µM
same,(GR)2 (normalized to GR concentration),[3]; [7],0.0 µM
same,(GR)3 (normalized to GR concentration),[3]; [7],0.0 µM
same,(GR)4 (normalized to GR concentration),[3]; [7],0.0 µM
same,(GR)5 (normalized to GR concentration),[3]; [7],0.0 µM
same,(GR)6 (normalized to GR concentration),[3]; [7],0.0 µM
same,(GR)8 (normalized to GR concentration),[3]; [7],0.0 µM
same,(GR)10 (normalized to GR concentration),[3]; [7],0.0 µM
same,(GR)1 (normalized to GR concentration),[3]; [8],335.6 µM
same,(GR)2 (normalized to GR concentration),[3]; [8],0.0 µM
same,(GR)3 (normalized to GR concentration),[3]; [8],0.0 µM
same,(GR)4 (normalized to GR concentration),[3]; [8],0.0 µM
same,(GR)5 (normalized to GR concentration),[3]; [8],0.0 µM
same,(GR)6 (normalized to GR concentration),[3]; [8],0.0 µM
same,(GR)8 (normalized to GR concentration),[3]; [8],0.0 µM
same,(GR)10 (normalized to GR concentration),[3]; [8],0.0 µM
same,(GR)1 (normalized uM),[4]; 5 min reaction,79.8 µM
same,(GR)2 (normalized uM),[4]; 5 min reaction,83.2 µM
same,(GR)3 (normalized uM),[4]; 5 min reaction,70.5 µM
same,(GR)4 (normalized uM),[4]; 5 min reaction,90.8 µM
same,(GR)5 (normalized uM),[4]; 5 min reaction,90.5 µM
same,(GR)6 (normalized uM),[4]; 5 min reaction,86.4 µM
same,(GR)8 (normalized uM),[4]; 5 min reaction,64.8 µM
same,(GR)10 (normalized uM),[4]; 5 min reaction,58 µM
same,(GR)1 (normalized uM),[4]; 60 min reaction,458.3 µM
same,(GR)2 (normalized uM),[4]; 60 min reaction,409.2 µM
same,(GR)3 (normalized uM),[4]; 60 min reaction,85.5 µM
same,(GR)4 (normalized uM),[4]; 60 min reaction,21.2 µM
same,(GR)5 (normalized uM),[4]; 60 min reaction,3 µM
same,(GR)6 (normalized uM),[4]; 60 min reaction,0 µM
same,(GR)8 (normalized uM),[4]; 60 min reaction,0 µM
same,(GR)10 (normalized uM),[4]; 60 min reaction,0 µM

# Source: patent US11419921B2, “Methods of treating neurological disorders” (EnClear Therapies, Inc., priority 2018, dated 2022)
